Measurements from US20220041756A1 (Chugai, published 2022).

B1: GPC3 ERY10-1 (bispecific antibody, human IgG1, kappa, L234A L235A, N297A)
heavy 1: QVQLVQSGAEVKKPGASVKVSCKASGYTFTDYEMHWIRQPPGQGLEWIGAIDPKTGDTAYSQKFKGRVTLTADKSTSTAYMELSSLTSEDTAVYYCTRFYSYTYWGQGTLVTVSSASTKGPSVFPLAPSSKSTSGGTAALGCLVKDYFPEPVTVSWNSGALTSGVHTFPAVLQSSGLYSLSSVVTVPSSSLGTQTYICNVNHKPSNTKVDKKVEPKSCDKTHTCPPCPAPEAAGGPSVFLFPPKPKDTLMISRTPEVTCVVVDVSHEDPEVKFNWYVDGVEVHNAKTKPREEQYASTYRVVSVLTVLHQDWLNGKEYKCKVSNKALPAPIEKTISKAKGQPREPQVYTLPPSRCELTKNQVSLSCAVKGFYPSDIAVEWESNGQPENNYKTTPPVLDSDGSFFLVSKLTVDKSRWQQGNVFSCSVMHEALHNHYTQKSLSLSPGGGGSGGGGSQAVVTQESALTTSPGETVTLTCRSSTGAVTTSNYANWVQEKPDHLFTGLIGGTNKRAPGVPARFSGSLIGDKAALTITGAQTEDEAIYFCALWYSNLWVFGGGTKLTVLGGGGSGGGGSGGGGSEVKLLESGGGLVQPKGSLKLSCAASGFTFNTYAMNWVRQAPGKGLEWVARIRSKYNNYATYYADSVKDRFTISRDDSQSILYLQMNNLKTEDTAMYYCVRHGNFGNSYVSWFAYWGQGTLVTVSADYKDDDDK
heavy 2: QVQLVQSGAEVKKPGASVKVSCKASGYTFTDYEMHWIRQPPGQGLEWIGAIDPKTGDTAYSQKFKGRVTLTADKSTSTAYMELSSLTSEDTAVYYCTRFYSYTYWGQGTLVTVSSASTKGPSVFPLAPSSKSTSGGTAALGCLVKDYFPEPVTVSWNSGALTSGVHTFPAVLQSSGLYSLSSVVTVPSSSLGTQTYICNVNHKPSNTKVDKKVEPKSCDKTHTCPPCPAPEAAGGPSVFLFPPKPKDTLMISRTPEVTCVVVDVSHEDPEVKFNWYVDGVEVHNAKTKPREEQYASTYRVVSVLTVLHQDWLNGKEYKCKVSNKALPAPIEKTISKAKGQPREPQVCTLPPSRDELTKNQVSLWCLVKGFYPSDIAVEWESNGQPENNYKTTPPVLDSDGSFFLYSKLTVDKSRWQQGNVFSCSVMHEALHNHYTQKSLSLSPHHHHHHHH
light: DIVMTQSPLSLPVTPGEPASISCRSSQSLVHSNRNTYLHWYQQKPGQAPRLLIYKVSNRFSGVPDRFSGSGSGTDFTLKISRVEAEDVGVYYCSQNTHVPPTFGQGTKLEIKRTVAAPSVFIFPPSDEQLKSGTASVVCLLNNFYPREAKVQWKVDNALQSGNSQESVTEQDSKDSTYSLSSTLTLSKADYEKHKVYACEVTHQGLSSPVTKSFNRGEC
notes: Anti-GPC3 IgG backbone with silent Fc and knobs-into-holes CH3; also called GPC ERY10-1
B2: GPC3 ERY9-1 (bispecific antibody, human IgG1, kappa, L234A L235A, N297A)
heavy: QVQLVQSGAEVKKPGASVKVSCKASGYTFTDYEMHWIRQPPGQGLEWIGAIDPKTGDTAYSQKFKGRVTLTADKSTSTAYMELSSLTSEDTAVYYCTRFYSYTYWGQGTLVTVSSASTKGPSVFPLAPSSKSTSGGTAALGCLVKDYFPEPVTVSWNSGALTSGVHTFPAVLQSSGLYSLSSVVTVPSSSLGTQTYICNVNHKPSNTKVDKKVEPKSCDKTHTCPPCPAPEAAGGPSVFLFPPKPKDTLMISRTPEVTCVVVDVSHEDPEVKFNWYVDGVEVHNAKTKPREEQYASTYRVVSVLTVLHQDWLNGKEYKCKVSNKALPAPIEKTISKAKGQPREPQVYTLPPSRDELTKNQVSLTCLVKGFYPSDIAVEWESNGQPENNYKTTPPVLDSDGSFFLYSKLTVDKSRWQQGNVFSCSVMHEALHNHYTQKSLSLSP
light 1: DIVMTQSPLSLPVTPGEPASISCRSSQSLVHSNRNTYLHWYQQKPGQAPRLLIYKVSNRFSGVPDRFSGSGSGTDFTLKISRVEAEDVGVYYCSQNTHVPPTFGQGTKLEIKRTVAAPSVFIFPPSDEQLKSGTASVVCLLNNFYPREAKVQWKVDNALQSGNSQESVTEQDSKDSTYSLSSTLTLSKADYEKHKVYACEVTHQGLSSPVTKSFNRGECHHHHHHHH
light 2: DIVMTQSPLSLPVTPGEPASISCRSSQSLVHSNRNTYLHWYQQKPGQAPRLLIYKVSNRFSGVPDRFSGSGSGTDFTLKISRVEAEDVGVYYCSQNTHVPPTFGQGTKLEIKRTVAAPSVFIFPPSDEQLKSGTASVVCLLNNFYPREAKVQWKVDNALQSGNSQESVTEQDSKDSTYSLSSTLTLSKADYEKHKVYACEVTHQGLSSPVTKSFNRGECGGGGSGGGGSQAVVTQESALTTSPGETVTLTCRSSTGAVTTSNYANWVQEKPDHLFTGLIGGTNKRAPGVPARFSGSLIGDKAALTITGAQTEDEAIYFCALWYSNLWVFGGGTKLTVLGGGGSGGGGSGGGGSEVKLLESGGGLVQPKGSLKLSCAASGFTFNTYAMNWVRQAPGKGLEWVARIRSKYNNYATYYADSVKDRFTISRDDSQSILYLQMNNLKTEDTAMYYCVRHGNFGNSYVSWFAYWGQGTLVTVSADYKDDDDK
notes: Anti-GPC3 IgG backbone with silent Fc

Biological target: T1, human CD3 epsilon on human CD3 epsilon-expressing Ba/F3 cells (human, UniProt P07766 23-207)
T1 construct: The Ba/F3 transfectant is not itself tied to that entry; also called CD3/BaF; CD3 epsilon chain
Test: flow cytometry on human CD3 epsilon-expressing Ba/F3 cells, FITC-labeled secondary antibody, calibration curve
Protocol: After washing these cells, an FITC-labeled secondary antibody was added for further reaction. After washing the cells, the fluorescent intensity of the label on the cells was measured using Epics XL flow cytometer (Beckman coulter) to prepare a calibration curve for each antibody.
Plasma was prepared from the blood and diluted appropriately. […] The plasma concentration of each antibody was calculated using determined values and the calibration curves described above.

T1 sequence (P07766 23-207 limits assumed): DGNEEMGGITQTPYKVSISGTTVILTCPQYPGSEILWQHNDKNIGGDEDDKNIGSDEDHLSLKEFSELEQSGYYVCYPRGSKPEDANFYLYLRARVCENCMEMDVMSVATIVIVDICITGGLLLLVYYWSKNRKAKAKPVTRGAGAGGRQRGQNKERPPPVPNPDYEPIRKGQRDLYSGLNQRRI

Row | Binder | binding result
1 | B1 | binds
2 | B2 | binds
